# Test results published in patent publication US7354734B2, “Fungal proteins and nucleic acids encoding same” (priority 2003, dated 2008).
# “Also recorded” adds a separate entry of the source. Where two headings read alike, the source gives them in different places.
# T1: pkLAP (microsomal LAP from porcine kidney) (Sus scrofa, UniProt P15145)
# T1 construct: purchased Sigma; host or cells: porcine kidney
# T1 sequence (P15145 1-963): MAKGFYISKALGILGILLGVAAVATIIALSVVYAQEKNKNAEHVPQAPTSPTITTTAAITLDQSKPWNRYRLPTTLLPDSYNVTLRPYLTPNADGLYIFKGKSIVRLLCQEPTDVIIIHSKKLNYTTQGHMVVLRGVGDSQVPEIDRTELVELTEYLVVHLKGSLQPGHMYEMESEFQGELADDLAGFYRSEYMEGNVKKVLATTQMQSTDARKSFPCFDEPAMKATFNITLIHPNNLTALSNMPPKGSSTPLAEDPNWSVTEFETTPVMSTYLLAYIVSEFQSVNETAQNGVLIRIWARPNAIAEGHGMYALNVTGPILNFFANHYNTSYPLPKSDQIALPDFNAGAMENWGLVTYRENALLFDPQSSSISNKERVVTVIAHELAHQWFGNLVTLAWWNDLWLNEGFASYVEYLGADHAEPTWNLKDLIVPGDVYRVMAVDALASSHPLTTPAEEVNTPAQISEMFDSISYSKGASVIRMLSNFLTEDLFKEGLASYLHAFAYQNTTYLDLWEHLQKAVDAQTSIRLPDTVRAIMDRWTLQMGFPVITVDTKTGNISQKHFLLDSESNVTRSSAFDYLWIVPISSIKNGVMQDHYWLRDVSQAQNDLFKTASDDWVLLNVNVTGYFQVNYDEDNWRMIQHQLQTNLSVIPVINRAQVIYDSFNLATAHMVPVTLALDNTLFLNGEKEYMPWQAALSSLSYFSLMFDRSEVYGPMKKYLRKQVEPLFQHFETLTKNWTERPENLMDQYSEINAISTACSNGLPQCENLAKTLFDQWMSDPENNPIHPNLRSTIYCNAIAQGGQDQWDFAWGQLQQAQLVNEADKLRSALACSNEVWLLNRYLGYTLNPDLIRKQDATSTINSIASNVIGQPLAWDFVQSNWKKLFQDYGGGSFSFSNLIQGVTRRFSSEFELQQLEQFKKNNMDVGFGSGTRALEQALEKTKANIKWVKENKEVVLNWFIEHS
# B1: ruLAP2: T. rubrum leucine aminopeptidase, 495 amino acid residues (SEQ ID NO: 3) (protein, listed as Trichophyton rubrum)
# chain: MKSQLLSLAVAVTTISQGVVGQEPFGWPFKPMVTQDDLQNKIKLKDIMAGVEKLQSFSDAHPEKNRVFGGNGHKDTVEWIYNEIKATGYYDVKKQEQVHLWSHAEAALNANGKDLKASAMSYSPPASKIMAELVVAKNNGCNATDYPANTQGKIVLVERGVCSFGEKSAQAGDAKAAGAIVYNNVPGSLAGTLGGLDKRHVPTAGLSQEDGKNLATLVASGKIDVTMNVISLFENRTTWNVIAETKGGDHNNVIMLGAHSDSVDAGPGINDNGSGSIGIMTVAKALTNFKLNNAVRFAWWTAEEFGLLGSTFYVNSLDDRELHKVKLYLNFDMIGSPNFANQIYDGDGSAYNMTGPAGSAEIEYLFEKFFDDQGIPHQPTAFTGRSDYSAFIKRNVPAGGLFTGAEVVKTPEQVKLFGGEAGVAYDKNYHRKGDTVANINKGAIFLNTRAIAYAIAEYARSLKGFPTRPKTGKRDVNPQYSKMPGGGCGHHTVFM
# Experiments:
# fuLAP2 = format: biochemical, Aspergillus fumigatus; conditions: for effect of inhibitor on fuLAP2 activity: Leu-AMC 5 mM
# fuLAP1 = fuLAP1 (Aspergillus fumigatus, UniProt Q5VJG6); test: biochemical; format: biochemical; conditions: for effect of inhibitor on fuLAP1 activity: Leu-AMC 5 mM
# fuLAP1, sequence (Q5VJG6 16-388): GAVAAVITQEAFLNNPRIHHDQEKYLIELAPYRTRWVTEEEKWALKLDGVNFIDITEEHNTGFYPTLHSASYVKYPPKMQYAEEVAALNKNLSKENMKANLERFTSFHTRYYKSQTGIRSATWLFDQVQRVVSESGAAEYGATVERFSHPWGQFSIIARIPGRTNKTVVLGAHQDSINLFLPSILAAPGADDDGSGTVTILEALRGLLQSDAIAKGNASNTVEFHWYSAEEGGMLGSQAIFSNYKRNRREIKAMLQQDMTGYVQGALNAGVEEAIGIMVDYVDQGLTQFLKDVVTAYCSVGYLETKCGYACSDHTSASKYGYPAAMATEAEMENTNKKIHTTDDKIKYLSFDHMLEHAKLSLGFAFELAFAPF
# [1] = target: T1, pkLAP (microsomal LAP from porcine kidney); test: Effect of inhibitors and metallic cations on LAP activity (Leu-AMC); format: biochemical; conditions: for effect of inhibitor on pkLAP activity: Leu-AMC 5 mM
# [2] = tested on: T. rubrum secreted proteolytic activity; test: Inhibition of T. rubrum secreted proteolytic activity (resorufin-labeled casein); format: biochemical, Trichophyton rubrum; conditions: T. rubrum culture medium, resorufin-labeled casein as substrate
# Description: The proteolytic activity was measured using resorufin-labeled casein in phosphate buffer (20 mM; pH 7.4). The reaction mixture contained 0.02% substrate in a total volume of 0.5 ml. After incubation at 37° C., the undigested substrate was precipitated by trichloroacetic add (4% final concentration) and separated from the supernatant by centrifugation. The absorbance at 574 nm of the supernatant was measured after alkalinization by adding 500 μl Tris buffer (500 mM; pH 9.4). For practical purposes, one unit (U) of proteolytic activity was defined as that producing an absorbance of 0.001 per min.
# T. rubrum was grown at 30° C. in a medium containing 0.2% soy protein as a sole carbon and nitrogen source. After 14 days of growth, a concomitant clarification of the culture medium was noted and a substantial proteolytic activity (400 U ml^−1) detected using resorufin-labeled casein as substrate. This proteolytic activity was 15% and 85% inhibited by PMSF and ortho-phenanthroline, respectively, attesting that serine and metalloproteases were secreted by T. rubrum. […] In addition, a high activity on substrates such as Leu-AMC and Leu-pNA was detected in the T. rubrum culture supernatant.
# ruLAP1 = ruLAP1 (Trichophyton rubrum, UniProt Q5QHG5); format: biochemical
# ruLAP1, sequence (Q5QHG5 21-373): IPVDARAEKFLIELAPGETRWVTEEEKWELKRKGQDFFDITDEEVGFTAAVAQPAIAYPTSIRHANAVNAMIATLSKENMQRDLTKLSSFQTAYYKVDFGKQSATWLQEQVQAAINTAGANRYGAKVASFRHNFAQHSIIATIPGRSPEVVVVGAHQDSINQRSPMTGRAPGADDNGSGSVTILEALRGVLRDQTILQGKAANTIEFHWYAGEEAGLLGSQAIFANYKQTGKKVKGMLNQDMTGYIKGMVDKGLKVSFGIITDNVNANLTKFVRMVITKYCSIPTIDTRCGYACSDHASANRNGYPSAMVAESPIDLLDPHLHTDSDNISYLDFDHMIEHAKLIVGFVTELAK
# ruLAP2 = ruLAP2 (Trichophyton rubrum, UniProt Q5QHG6); format: biochemical; conditions: for effect of inhibitor on ruLAP2 activity: Leu-AMC 5 mM
# Ala-proNPY = test: Digestion of Ala-proNPY; format: biochemical; conditions: conditions as for Gly-Ser-proNPY
# Description: The digested material was isolated by RP-HPLC and characterized by ESI-MS. […] The same result is obtained at an 1:[…] ratio. Digestion halts when the enzyme reaches a Xaa-Pro-motif, which in case of proNPY is Tyr-Pro. Conditions of incubation were the same as for Gly-Ser-proNPY.
# [3] = format: biochemical
# [4] = tested on: gliadin 14mer PQPQLPYPQPQLPY (fragment 82-95 of α/β gliadin AIV); format: biochemical, wheat
# [5] = tested on: gliadin 33mer (fragment 57-89 of gliadin MM1); test: Digestion of gliadin 33mer (RP-HPLC, ESI-MS); format: biochemical, wheat; conditions: 37° C.
# Gly-Ser-proNPY = test: Digestion of Gly-Ser-proNPY; format: biochemical; conditions: overnight 37° C., 1 mM CoCl2, E/S 1:20
# Text: The digested material was isolated by RP-HPLC and characterized by ESI-MS. […] The same result is obtained at an 1:[…] ratio. Digestion halts when the enzyme reaches a Xaa-Pro-motif, which in case of proNPY is Tyr-Pro.
# [6] = format: biochemical; conditions: substrate Lys(Abz)Pro-PropNA 5 mM, 37° C., 60 min
# [7] = inhibitor 40 μM, Leu-MCA substrate, 15 min pre-incubation
molecule,measurement,setting,value
O=S(=O)(F)Cc1ccccc1 [PMSF],effect of inhibitor on fuLAP2 activity,fuLAP2,no clear inhibitory effects
same,fuLAP2 activity as percentage of control reaction without inhibitor,fuLAP2; [7],84%
same,effect of inhibitor on fuLAP1 activity,fuLAP1,no clear inhibitory effects
same,fuLAP1 activity as percentage of control reaction without inhibitor,fuLAP1; [7],156%
same,effect of inhibitor on pkLAP activity,[1],no clear inhibitory effects
same,pkLAP activity as percentage of control reaction without inhibitor,[1]; [7],58%
same,inhibition of proteolytic activity,[2],15%
same,effect of inhibitor on ruLAP1 activity,ruLAP1,no clear inhibitory effects
same,ruLAP1 activity as percentage of control reaction without inhibitor,ruLAP1; 40 µM,78%
same,effect of inhibitor on ruLAP2 activity,ruLAP2,no clear inhibitory effects
same,ruLAP2 activity as percentage of control reaction without inhibitor,ruLAP2; [7],79%
"c1cnc2c(c1)ccc1cccnc12 [ortho-phenantroline, ortho-phenanthroline]",effect of inhibitor on fuLAP2 activity,fuLAP2,totally inhibited
same,effect of inhibitor on fuLAP1 activity,fuLAP1,totally inhibited
same,effect of inhibitor on pkLAP activity,[1],totally inhibited
same,inhibition of proteolytic activity,[2],85%
same,effect of inhibitor on ruLAP1 activity,ruLAP1; Leu-AMC 5 mM,totally inhibited
same,effect of inhibitor on ruLAP2 activity,ruLAP2,totally inhibited
B1,removal of N-terminal alanine from Ala-proNPY,Ala-proNPY,almost totally removed
same,hydrolytic activity toward Asp-AMC,[3]; compared to Leu-AMC,efficiently cleaved; also recorded: efficiently hydrolyze
same,hydrolytic activity toward Glu-AMC,[3]; compared to Leu-AMC,efficiently cleaved; also recorded: efficiently hydrolyze
same,hydrolytic activity toward Pro-AMC,[3]; compared to Leu-AMC,more efficiently cleaved
same,hydrolytic activity toward Ser-AMC,[3]; compared to Leu-AMC,more efficiently cleaved
same,hydrolytic activity toward Ala-AMC in comparison to Leu-MCA used as a standard,"[3]; substrate Ala-AMC 5 mM, 37° C., 60 min",33.3%
same,hydrolytic activity toward Arg-AMC in comparison to Leu-MCA used as a standard,"[3]; substrate Arg-AMC 5 mM, 37° C., 60 min",1.9%
same,hydrolytic activity toward Asn-AMC in comparison to Leu-MCA used as a standard,"[3]; substrate Asn-AMC 5 mM, 37° C., 60 min",114.6%
same,hydrolytic activity toward Asp-AMC in comparison to Leu-MCA used as a standard,"[3]; substrate Asp-AMC 5 mM, 37° C., 60 min",3.8%
same,hydrolytic activity toward Cys-AMC in comparison to Leu-MCA used as a standard,"[3]; substrate Cys-AMC 5 mM, 37° C., 60 min",14.9%
same,hydrolytic activity toward Gln-AMC in comparison to Leu-MCA used as a standard,"[3]; substrate Gln-AMC 5 mM, 37° C., 60 min",49.9%
same,hydrolytic activity toward Glu-AMC in comparison to Leu-MCA used as a standard,"[3]; substrate Glu-AMC 5 mM, 37° C., 60 min",3.7%
same,hydrolytic activity toward Gly-AMC in comparison to Leu-MCA used as a standard,"[3]; substrate Gly-AMC 5 mM, 37° C., 60 min",3.3%
same,hydrolytic activity toward Gly-Pro-AMC in comparison to Leu-MCA used as a standard,"[3]; substrate Gly-Pro-AMC 5 mM, 37° C., 60 min",7.2%
same,hydrolytic activity toward His-AMC in comparison to Leu-MCA used as a standard,"[3]; substrate His-AMC 5 mM, 37° C., 60 min",0.6%
same,hydrolytic activity toward Hyp-AMC in comparison to Leu-MCA used as a standard,"[3]; substrate Hyp-AMC 5 mM, 37° C., 60 min",14.2%
same,hydrolytic activity toward Ile-AMC in comparison to Leu-MCA used as a standard,"[3]; substrate Ile-AMC 5 mM, 37° C., 60 min",6.4%
same,hydrolysis of Leu-AMC,[3]; substrate Leu-AMC,efficiently hydrolyzed; also recorded: common preference
same,hydrolytic activity toward Leu-AMC in comparison to Leu-MCA used as a standard,"[3]; substrate Leu-AMC 5 mM, 37° C., 60 min",100.0%
same,hydrolytic activity toward Lys-AMC in comparison to Leu-MCA used as a standard,"[3]; substrate Lys-AMC 5 mM, 37° C., 60 min",4.6%
same,hydrolytic activity toward Met-AMC in comparison to Leu-MCA used as a standard,"[3]; substrate Met-AMC 5 mM, 37° C., 60 min",119.7%
same,hydrolytic activity toward Phe-AMC in comparison to Leu-MCA used as a standard,"[3]; substrate Phe-AMC 5 mM, 37° C., 60 min",17.1%
same,hydrolytic activity toward Pro-AMC in comparison to Leu-MCA used as a standard,"[3]; substrate Pro-AMC 5 mM, 37° C., 60 min",21.4%
same,hydrolytic activity toward Pyr-AMC in comparison to Leu-MCA used as a standard,"[3]; substrate Pyr-AMC 5 mM, 37° C., 60 min",0.0%
same,hydrolytic activity toward Ser-AMC in comparison to Leu-MCA used as a standard,"[3]; substrate Ser-AMC 5 mM, 37° C., 60 min",26.1%
same,hydrolytic activity toward Thr-AMC in comparison to Leu-MCA used as a standard,"[3]; substrate Thr-AMC 5 mM, 37° C., 60 min",0.9%
same,hydrolytic activity toward Val-AMC in comparison to Leu-MCA used as a standard,"[3]; substrate Val-AMC 5 mM, 37° C., 60 min",4.8%
same,digestion of denatured casein,denatured casein,sequentially digest
same,"digestion of gliadin 14mer, supplemented with ruDPPIV",[4],complete breakdown
same,"digestion of gliadin 14mer, enzyme alone","[4]; 4 h, 37° C.",not digested
same,"digestion of gliadin 33mer, mixed with ruDPPIV",[5]; enzyme plus ruDPPIV (DPPIV),totally digested; also recorded: same HPLC pattern
same,"degradation of gliadin 33mer, enzyme alone",[5]; within 4 h,less than 50%
same,N-terminal cleavage of Gly-Ser-proNPY,Gly-Ser-proNPY,cleavage of the two N-terminal residues Gly-Ser
same,hydrolytic activity toward Lys(Abz)Pro-PropNA in comparison to Leu-MCA used as a standard,[6],0.0%
